What was measured:
Assay in all cases: holdup assay
Set-up in all cases: key: below the threshold = too weak to quantify, mostly under pKd 3.1 to 4
[1] = target: Inadl_2, Q8NI35
[2] = target: T1, MPDZ_12, O75970
T1 sequence (O75970 1857-1958, limits assumed, looked up): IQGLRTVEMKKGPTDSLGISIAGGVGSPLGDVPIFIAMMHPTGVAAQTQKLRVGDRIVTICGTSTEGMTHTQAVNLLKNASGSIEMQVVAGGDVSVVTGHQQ

[3] = target: LAP2, Q96RT1
[4] = target: T2, GRIP1_5, Q9Y3R0
T2 sequence (Q9Y3R0 568-668, limits assumed, looked up): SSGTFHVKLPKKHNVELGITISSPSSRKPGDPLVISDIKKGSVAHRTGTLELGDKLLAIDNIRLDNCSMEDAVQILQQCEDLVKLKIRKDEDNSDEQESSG

[5] = target: GRIP2_4, Q9C0E4
[6] = target: Inadl_1, Q8NI35
[7] = target: T3, APBA3_1, O96018
T3 sequence (O96018 389-490, limits assumed, looked up): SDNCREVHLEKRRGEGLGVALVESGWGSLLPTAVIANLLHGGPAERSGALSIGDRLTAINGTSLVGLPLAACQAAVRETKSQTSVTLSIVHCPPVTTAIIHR

[8] = target: MAGI1_1, Q96QZ7
[9] = target: IL16_3, Q14005
[10] = target: T4, MPDZ_5, O75970
T4 sequence (O75970 695-796, limits assumed, looked up): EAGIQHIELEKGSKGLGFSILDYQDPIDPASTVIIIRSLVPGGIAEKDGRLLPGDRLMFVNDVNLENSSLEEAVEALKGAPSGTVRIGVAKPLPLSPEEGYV

[11] = target: PDLIM1, O00151
[12] = target: T5, DVL3, Q92997
T5 sequence (Q92997 244-331, limits assumed, looked up): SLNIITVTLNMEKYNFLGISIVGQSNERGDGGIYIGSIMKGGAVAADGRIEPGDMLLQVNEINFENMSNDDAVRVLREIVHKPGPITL

[13] = target: T6, GRIP1_3, Q9Y3R0
T6 sequence (Q9Y3R0 247-346, limits assumed, looked up): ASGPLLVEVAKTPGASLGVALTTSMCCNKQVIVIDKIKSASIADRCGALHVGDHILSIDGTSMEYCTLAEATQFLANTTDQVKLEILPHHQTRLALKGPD

[14] = target: Inadl_8, Q8NI35
[15] = target: T7, GRIP1_4, Q9Y3R0
T7 sequence (Q9Y3R0 467-571, limits assumed, looked up): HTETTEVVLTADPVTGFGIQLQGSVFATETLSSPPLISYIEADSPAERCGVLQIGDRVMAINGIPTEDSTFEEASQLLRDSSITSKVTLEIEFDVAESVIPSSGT

[16] = target: T8, NHERF3_1, Q5T2W1
T8 sequence (Q5T2W1 4-100, limits assumed, looked up): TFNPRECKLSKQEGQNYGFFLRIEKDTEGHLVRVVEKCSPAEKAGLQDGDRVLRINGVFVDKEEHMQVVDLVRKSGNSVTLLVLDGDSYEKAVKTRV

[17] = target: GRIP2_5, Q9C0E4
[18] = target: T9, TIAM2, Q8IVF5
T9 sequence (Q8IVF5 885-986, limits assumed, looked up): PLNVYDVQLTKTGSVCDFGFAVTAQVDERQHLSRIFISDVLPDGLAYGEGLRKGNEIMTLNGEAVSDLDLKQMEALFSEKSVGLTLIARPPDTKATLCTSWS

[19] = target: DLG2_2, Q15700
[20] = target: DLG4_1, P78352
[21] = target: NHERF2_2, Q15599
[22] = target: MAGI3_2, Q5TCQ9
[23] = target: T10, LIN7C, Q9NUP9
T10 sequence (Q9NUP9 88-185, limits assumed, looked up): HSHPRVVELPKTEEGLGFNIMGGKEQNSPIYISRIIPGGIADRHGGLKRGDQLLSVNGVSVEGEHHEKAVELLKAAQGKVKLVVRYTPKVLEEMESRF

[24] = target: T11, SIPA1L2, Q9P2F8
T11 sequence (Q9P2F8 945-1036, limits assumed, looked up): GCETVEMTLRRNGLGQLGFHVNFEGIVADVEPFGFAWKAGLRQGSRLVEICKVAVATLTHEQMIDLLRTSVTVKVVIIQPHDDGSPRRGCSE

[25] = target: DLG2_3, Q15700
[26] = target: SCRIB_2, Q14160
[27] = plain residues with an end cap or a label only (N-terminal biotin on a linker: ahx)
[28] = plain residues with an end cap or a label only (N-terminal biotin on a linker: ttds)
[29] = plain residues with an end cap or a label only (N-terminal biotin on a linker: ado-ado, ttds)
[30] = plain residues with an end cap or a label only (N-terminal biotin on a linker: ado-ado)

PDLIM1, O00151, sequence (O00151 1-87): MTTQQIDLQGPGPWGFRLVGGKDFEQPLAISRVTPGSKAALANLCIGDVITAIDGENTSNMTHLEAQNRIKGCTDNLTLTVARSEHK
NHERF2_2, Q15599, sequence (Q15599 142-238): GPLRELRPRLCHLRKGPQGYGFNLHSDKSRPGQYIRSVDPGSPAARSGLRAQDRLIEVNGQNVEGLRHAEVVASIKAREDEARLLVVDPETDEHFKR
DLG4_1, P78352, sequence (P78352 62-152): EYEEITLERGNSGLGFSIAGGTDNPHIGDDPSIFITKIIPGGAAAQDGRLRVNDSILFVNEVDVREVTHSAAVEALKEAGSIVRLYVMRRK
Inadl_8, Q8NI35, sequence (Q8NI35 1425-1530): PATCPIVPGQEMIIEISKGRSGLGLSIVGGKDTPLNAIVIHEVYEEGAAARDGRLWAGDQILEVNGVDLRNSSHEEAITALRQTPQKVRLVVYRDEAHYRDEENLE
IL16_3, Q14005, sequence (Q14005 1107-1207): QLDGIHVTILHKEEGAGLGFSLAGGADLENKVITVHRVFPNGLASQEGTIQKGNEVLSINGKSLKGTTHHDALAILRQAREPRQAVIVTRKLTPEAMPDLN
GRIP2_4, Q9C0E4, sequence (Q9C0E4 446-548): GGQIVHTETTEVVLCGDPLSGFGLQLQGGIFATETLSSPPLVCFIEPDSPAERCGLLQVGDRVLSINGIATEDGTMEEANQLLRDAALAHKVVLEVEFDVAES
MAGI1_1, Q96QZ7, sequence (Q96QZ7 1-106): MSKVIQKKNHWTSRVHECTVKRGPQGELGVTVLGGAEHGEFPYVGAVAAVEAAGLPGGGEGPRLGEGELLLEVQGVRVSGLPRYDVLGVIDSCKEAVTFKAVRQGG
LAP2, Q96RT1, sequence (Q96RT1 other isoform, or with tags, fused parts or gaps): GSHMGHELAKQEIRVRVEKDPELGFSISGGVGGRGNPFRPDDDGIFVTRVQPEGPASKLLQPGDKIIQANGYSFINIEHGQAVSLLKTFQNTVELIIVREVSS
MAGI3_2, Q5TCQ9, sequence (Q5TCQ9 398-503): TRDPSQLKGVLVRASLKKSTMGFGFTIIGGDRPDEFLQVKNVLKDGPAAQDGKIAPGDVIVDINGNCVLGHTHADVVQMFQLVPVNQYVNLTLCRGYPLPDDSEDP
Inadl_1, Q8NI35, sequence (Q8NI35 113-229): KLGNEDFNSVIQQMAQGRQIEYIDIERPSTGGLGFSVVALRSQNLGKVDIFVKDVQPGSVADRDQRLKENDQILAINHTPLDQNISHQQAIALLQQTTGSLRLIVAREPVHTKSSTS
Inadl_2, Q8NI35, sequence (Q8NI35 238-335): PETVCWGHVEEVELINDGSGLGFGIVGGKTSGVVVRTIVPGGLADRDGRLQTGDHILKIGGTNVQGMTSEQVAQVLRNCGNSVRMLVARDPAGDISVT
GRIP2_5, Q9C0E4, sequence (Q9C0E4 544-642): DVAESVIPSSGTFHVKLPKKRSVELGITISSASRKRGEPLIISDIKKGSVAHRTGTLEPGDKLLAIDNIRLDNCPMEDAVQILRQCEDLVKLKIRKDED
SCRIB_2, Q14160, sequence (Q14160 857-960): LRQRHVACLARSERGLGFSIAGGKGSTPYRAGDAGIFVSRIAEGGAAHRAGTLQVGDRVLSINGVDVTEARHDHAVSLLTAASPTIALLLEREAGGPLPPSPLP

B1: NHERF1, O14745 (peptide)
chain: SKKNELFSNL
[1]; [27]
  pKd: below the threshold
[2]; [27]
  pKd: below the threshold
[3]; [27]
  pKd: below the threshold
[4]; [27]
  pKd: below the threshold
[5]; [27]
  pKd: below the threshold
[6]; [27]
  pKd: below the threshold
[7]; [27]
  pKd: below the threshold
[8]; [27]
  pKd: below the threshold
[9]; [27]
  pKd: below the threshold
[10]; [27]
  pKd: below the threshold
[11]; [27]
  pKd: below the threshold
[12]; [27]
  pKd: below the threshold
[13]; [27]
  pKd: below the threshold
[14]; [27]
  pKd: below the threshold
[15]; [27]
  pKd: below the threshold
[16]; [27]
  pKd: below the threshold
[17]; [27]
  pKd: below the threshold
[18]; [27]
  pKd: below the threshold
[19]; [27]
  pKd: below the threshold
[20]; [27]
  pKd: below the threshold
[21]; [27]
  pKd: below the threshold
[22]; [27]
  pKd: below the threshold
[23]; [27]
  pKd: below the threshold
[24]; [27]
  pKd: below the threshold
[25]; [27]
  pKd: below the threshold
[26]; [27]
  pKd: below the threshold

B2: SLC15A5, A6NIM6 (peptide)
chain: SSIDLWETAL
[1]; [28]
  pKd: below the threshold
[2]; [28]
  pKd: below the threshold
[3]; [28]
  pKd: 4.9
[4]; [28]
  pKd: below the threshold
[5]; [28]
  pKd: below the threshold
[6]; [28]
  pKd: below the threshold
[7]; [28]
  pKd: below the threshold
[8]; [28]
  pKd: below the threshold
[9]; [28]
  pKd: below the threshold
[10]; [28]
  pKd: below the threshold
[11]; [28]
  pKd: 4.22
[12]; [28]
  pKd: below the threshold
[13]; [28]
  pKd: below the threshold
[14]; [28]
  pKd: below the threshold
[15]; [28]
  pKd: below the threshold
[16]; [28]
  pKd: 6.25
[17]; [28]
  pKd: below the threshold
[18]; [28]
  pKd: below the threshold
[19]; [28]
  pKd: 3.88
[20]; [28]
  pKd: 4.29
[21]; [28]
  pKd: 5.41
[22]; [28]
  pKd: 3.81
[23]; [28]
  pKd: 5.21
[24]; [28]
  pKd: below the threshold
[25]; [28]
  pKd: 3.73
[26]; [28]
  pKd: 5.14

B3: KCNA4, P22459 (peptide)
chain: SNAKAVETDV
[1]; [29]
  pKd: below the threshold
[2]; [29]
  pKd: below the threshold
[3]; [29]
  pKd: 4.32
[4]; [29]
  pKd: below the threshold
[5]; [29]
  pKd: below the threshold
[6]; [29]
  pKd: below the threshold
[7]; [29]
  pKd: below the threshold
[8]; [29]
  pKd: below the threshold
[9]; [29]
  pKd: below the threshold
[10]; [29]
  pKd: below the threshold
[11]; [29]
  pKd: 3.77
[12]; [29]
  pKd: below the threshold
[13]; [29]
  pKd: below the threshold
[14]; [29]
  pKd: below the threshold
[15]; [29]
  pKd: below the threshold
[16]; [29]
  pKd: below the threshold
[17]; [29]
  pKd: below the threshold
[18]; [29]
  pKd: below the threshold
[19]; [29]
  pKd: 5
[20]; [29]
  pKd: 4.67
[21]; [29]
  pKd: 3.59
[22]; [29]
  pKd: 3.9
[23]; [29]
  pKd: below the threshold
[24]; [29]
  pKd: below the threshold
[25]; [29]
  pKd: below the threshold
[26]; [29]
  pKd: 4.67

B4: DCHS2, Q6V1P9 (peptide)
chain: ELKAEDEVQI
[1]; [30]
  pKd: below the threshold
[2]; [30]
  pKd: below the threshold
[3]; [30]
  pKd: below the threshold
[4]; [30]
  pKd: below the threshold
[5]; [30]
  pKd: below the threshold
[6]; [30]
  pKd: below the threshold
[7]; [30]
  pKd: below the threshold
[8]; [30]
  pKd: below the threshold
[9]; [30]
  pKd: below the threshold
[10]; [30]
  pKd: below the threshold
[11]; [30]
  pKd: below the threshold
[12]; [30]
  pKd: below the threshold
[13]; [30]
  pKd: below the threshold
[14]; [30]
  pKd: below the threshold
[15]; [30]
  pKd: below the threshold
[16]; [30]
  pKd: below the threshold
[17]; [30]
  pKd: below the threshold
[18]; [30]
  pKd: 3.52
[19]; [30]
  pKd: below the threshold
[20]; [30]
  pKd: below the threshold
[21]; [30]
  pKd: below the threshold
[22]; [30]
  pKd: below the threshold
[23]; [30]
  pKd: below the threshold
[24]; [30]
  pKd: below the threshold
[25]; [30]
  pKd: below the threshold
[26]; [30]
  pKd: below the threshold

B5: HPV82-E6, Q9IR59 (peptide)
chain: PPRQRSETQV
[1]; [28]
  pKd: below the threshold
[2]; [28]
  pKd: below the threshold
[3]; [28]
  pKd: 3.45
[4]; [28]
  pKd: below the threshold
[5]; [28]
  pKd: below the threshold
[6]; [28]
  pKd: below the threshold
[7]; [28]
  pKd: below the threshold
[8]; [28]
  pKd: below the threshold
[9]; [28]
  pKd: below the threshold
[10]; [28]
  pKd: below the threshold
[11]; [28]
  pKd: below the threshold
[12]; [28]
  pKd: below the threshold
[13]; [28]
  pKd: below the threshold
[14]; [28]
  pKd: below the threshold
[15]; [28]
  pKd: below the threshold
[16]; [28]
  pKd: 4.03
[17]; [28]
  pKd: below the threshold
[18]; [28]
  pKd: below the threshold
[19]; [28]
  pKd: 4.79
[20]; [28]
  pKd: 4.65
[21]; [28]
  pKd: below the threshold
[22]; [28]
  pKd: 5.68
[23]; [28]
  pKd: 3.64
[24]; [28]
  pKd: below the threshold
[25]; [28]
  pKd: 4.9
[26]; [28]
  pKd: 4.26

From paper PMC9482650, “Quantitative fragmentomics allow affinity mapping of interactomes” (Nature Communications, 2022)
